Measurements: the Human Domainome abundance scans (Beltran et al. 2025)

B1: Serine/threonine-protein kinase A-Raf, residues 21 to 89; numbered along this chain, P10398 (parent)
chain: VKVYLPNKQRTVVTVRDGMSVYDSLDKALKVRGLNQDCCVVYRLIKGRKTVTAWDTAIAPLDGEELIVE

Variants of: B1
Assay: abundance fitness (aPCA) (normalised: wild type 0, dead -1); higher = more abundant; growth selection in yeast, the domain comes from the species named
Settings: Homo sapiens

Abundance fitness, by site and new letter:
V21: L 0.093; M -0.207; H -0.996; T -0.964; Q -0.834; Y -0.033; R -0.864; P -0.99; K -0.493; I -0.602; W -0.602; S -0.858; G -1.04
Y22: K 0.012; C -0.176; E -0.144; H 0.024; N -0.346; G 0.105; A 0.056; P -0.95; D -0.83; Q 0.041; L -0.04; V -0.321; M -0.142; R 0.11; S 0.094; T -0.383; W -0.069
A28: S -0.263; V 0.1; P -0.15; G -0.78; R -1.06; I -0.271; Y -0.274; F -0.122; C -0.223; L 0.029; Q -0.438; T -0.206; W -0.425; E -0.195; D -0.371; M -0.037
L29: W -0.601; N -0.607; S -0.558; P -0.958; F -0.191; E -0.947; R -0.969; Q -0.913; G -0.941; V -0.806; A -0.933; C -0.995; M 0.191; T -0.845; I -0.907
V40: G -0.857; F -0.828; Q 0.073; I -0.09; S -0.321; P -0.925; R -0.131; A -0.021; E -0.253; L -0.259; T -0.164; M -0.058; C -0.087; Y -0.273; K -0.117
N35: W -0.866; T 0.025; P -0.754; H -0.415; F -0.449; Q -0.221; E 0.016; R -0.101; I -0.682; A -0.188; M -0.321; K -0.063; L -0.32; D -0.132; G -0.154; Y -0.019; V -0.161
D37: Q 0.14; W -0.838; L -0.567; E -0.141; S -0.196; V -0.755; A -0.39; T -0.387; H -0.097; C -0.273; M -0.499; I -0.39; R -0.198; P -0.662; N -0.186; G -0.219; Y -0.408
S24: F -0.349; A 0.174; M -0.04; P -0.896; Q -0.411; C 0.11; R -0.914; I 0.027; T -0.025; N -0.469; D -0.887; W -0.35; K -0.912; Y -0.487; E -0.652; V 0.031; H -0.949; G 0.149
D26: E 0.04; Y -0.182; M -0.119; K -0.076; V -0.065; A 0.069; T -0.277; S -0.113; I -0.146; W -0.113; Q 0.179; P -0.977; R 0.023; C 0.063; G -0.1; L -0.137; H -0.096
Y42: E -1.02; I -0.844; F -0.004; G -0.824; A -1.05; K -0.481; M -0.684; H -0.557; L -1.02; D -0.928
K27: Q -0.39; R -0.046
C39: M -0.432; P -0.805; I -0.766; H -0.171; A -0.504; V -0.161; G -0.944; N -0.848; R -0.987; F -0.466; E -1.16; W -0.841; S -0.585
Q36: M -0.18; D -0.582; R 0.058; T -0.162; H -0.203; P -0.03; L -0.335; Y -0.169; N -0.574; S -0.178; A -0.043; K 0.046; C -0.206; V -0.028; F -0.134; I -0.043; G -0.398; E -0.485
G33: Q -0.576; S -0.525; L -0.942; A -0.546; R -0.712; M -0.037; E -0.26; C -0.694; K -0.41; V -0.573; T -0.626; Y -0.894; N -0.473; P -0.953; D -0.416
D23: E 0.085; W -0.338; P -0.931; L -0.493; A -0.201; Q 0.118; S -0.145; C -0.908; T -0.087; H -0.345; K -0.106; G -0.388; M -0.301; R -0.283; V -0.389; N -0.294; Y -0.825; F -0.056
L34: T -1.05; Y -0.459; W -0.27; R -1; F -0.074; H -0.789; G -1.1; C -0.644; M -0.135; S -0.835; V -1; P -0.833; A -1.02
V31: R 0.004; Y -0.278; C -0.103; F -0.187; K -0.042; N -0.073; I -0.076; P -0.41; M -0.045; D -0.265; G -0.086; E 0.066; T 0.015; A 0.111; L 0.005; W -0.305
V41: W -0.549; Q -0.849; S -0.515; D -0.841; N -0.836; T -0.8; L -0.143; M -0.711; G -0.899; R -0.559; H -0.641; I -0.507; F -0.846; A -0.274; P -0.555; K -0.685; Y -0.938; C -0.15
L25: V -0.54; A -0.919; H -1.06; Q -0.961; W -0.971; R -0.924; D -0.717; T -0.978; S -0.891; G -0.697; C -0.427; F -0.903; I -0.573; E -0.944; K -0.542
C38: M 0.12; I -0.074; Q -0.037; Y -0.082; G 0.038; E 0.118; V -0.075; H -0.019; R -0.094; W -0.179; F -0.136; T -0.004; N 0.141; P -0.677
R32: F -0.009; N 0.141; A 0.088; K -0.369; I 0.188; Y -0.012; D -0.487; S -0.141; V 0.019; G -0.298; T -0.2; P -0.59; M 0.12; L 0.046; H 0.1; E -0.193; Q 0.065; W -0.203; C -0.162
K30: A -0.218; E -0.336; F -0.574; C -0.583; I -0.63; Q -0.217; S -0.265; W -0.969; G -0.426; P -0.957; M -0.288; H -0.83; L -0.561; V -0.713; T -0.152; Y -0.403; N -0.478; R -0.006
